B1: GFOD1 (parent)
chain: SDDFCTFQMVLEGGVCCTVTLNFN
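Note: lentivirally expressed fusions sorted by FACS into six bins by GFP to DsRed ratio, PSI derived from sequencing read proportions per bin multiplied by bin number.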

Variants of: B1
Assay: protein stability index of a GFP-peptide fusion (GPS, HEK-293T) (PSI 1-6); higher = more stable
Conditions: c terminus: a fixed tail appended
Variant SDDFCTFQMVLQGGVCCTVTLNFN has a protein stability index of 2.74.
With SDDFCTFQMVLTGGVCCTVTLNFN the protein stability index was 1.99.
SDDFCTFQMVLFGGVCCTVTLNFN showed a protein stability index of 2.27.
SDDFCTFQMVLNGGVCCTVTLNFN showed a protein stability index of 3.79.
With SDDFCTFQMVLWGGVCCTVTLNFN the protein stability index was 2.6.
In the case of SDDFCTFQMVLGGGVCCTVTLNFN, the protein stability index is reported as 3.33.
Work on SDDFCTFQMVLIGGVCCTVTLNFN yielded a protein stability index of 2.56.
In the case of SDDFCTFQMVLAGGVCCTVTLNFN, the protein stability index is reported as 3.59.
For SDDFCTFQMVLSGGVCCTVTLNFN, the protein stability index was 3.99.
With SDDFCTFQMVLHGGVCCTVTLNFN the protein stability index was 2.37.
Variant SDDFCTFQMVLCGGVCCTVTLNFN has a protein stability index of 2.46.
Work on SDDFCTFQMVLVGGVCCTVTLNFN yielded a protein stability index of 3.03.
In the case of SDDFCTFQMVLLGGVCCTVTLNFN, the protein stability index is reported as 4.46.
For SDDFCTFQMVLMGGVCCTVTLNFN, the protein stability index was 3.38.
SDDFCTFQMVLEGGHCCTVTLNFN showed a protein stability index of 4.25.
With SDDFCTFQMVLEGGKCCTVTLNFN the protein stability index was 2.27.
With SDDFCTFQMVLEGGICCTVTLNFN the protein stability index was 1.72.
For SDDFCTFQMVLEGGDCCTVTLNFN, the protein stability index was 2.58.
In the case of SDDFCTFQMVLEGGYCCTVTLNFN, the protein stability index is reported as 4.1.
With SDDFCTFQMVLEGGECCTVTLNFN the protein stability index was 2.33.
Variant SDDFCTFQMVLEGGQCCTVTLNFN has a protein stability index of 2.94.
Variant SDDFCTFQMVLEGGMCCTVTLNFN has a protein stability index of 3.15.
For SDDFCTFQMVLEGGFCCTVTLNFN, the protein stability index was 3.41.
SDDFCTFQMVLEGGRCCTVTLNFN gave a protein stability index of 3.84.
In the case of SDDFCTFQMVLEGGCCCTVTLNFN, the protein stability index is reported as 2.55.
Variant SDDFCTFQMVLEGGPCCTVTLNFN has a protein stability index of 2.97.
With SDDFCTFQMVLEGGLCCTVTLNFN the protein stability index was 4.13.
Work on SDDFCTFQLVLEGGVCCTVTLNFN yielded a protein stability index of 2.7.
SDDFCTFQHVLEGGVCCTVTLNFN gave a protein stability index of 2.74.
Variant SDDFCTFQEVLEGGVCCTVTLNFN has a protein stability index of 1.42.
With SDDFCTFQGVLEGGVCCTVTLNFN the protein stability index was 3.57.
Work on SDDFCTFQKVLEGGVCCTVTLNFN yielded a protein stability index of 1.8.
In the case of SDDFCTFQPVLEGGVCCTVTLNFN, the protein stability index is reported as 1.27.
For SDDFCTFQDVLEGGVCCTVTLNFN, the protein stability index was 2.18.
With SDDFCTFQWVLEGGVCCTVTLNFN the protein stability index was 2.28.
SDDFCTFQAVLEGGVCCTVTLNFN showed a protein stability index of 2.43.
SDDFCTFQVVLEGGVCCTVTLNFN gave a protein stability index of 2.59.
SDDFCTFQCVLEGGVCCTVTLNFN showed a protein stability index of 2.77.
Variant SDDFCTFQTVLEGGVCCTVTLNFN has a protein stability index of 3.09.
In the case of SDDFCTFQIVLEGGVCCTVTLNFN, the protein stability index is reported as 3.34.
For SDDFCTFQYVLEGGVCCTVTLNFN, the protein stability index was 2.76.
For SDDFCTFQFVLEGGVCCTVTLNFN, the protein stability index was 2.5.
For SDDFCTFQQVLEGGVCCTVTLNFN, the protein stability index was 1.55.
For SDDFCTFQMVLEGGVICTVTLNFN, the protein stability index was 3.88.
With SDDFCTFQMVLEGGVFCTVTLNFN the protein stability index was 1.78.
With SDDFCTFQMVLEGGVKCTVTLNFN the protein stability index was 2.95.
Work on SDDFCTFQMVLEGGVHCTVTLNFN yielded a protein stability index of 3.09.
SDDFCTFQMVLEGGVWCTVTLNFN gave a protein stability index of 2.8.
With SDDFCTFQMVLEGGVVCTVTLNFN the protein stability index was 2.46.
With SDDFCTFQMVLEGGVYCTVTLNFN the protein stability index was 2.76.
SDDFCTFQMVLEGGVQCTVTLNFN gave a protein stability index of 2.45.
SDDFCTFQMVLEGGVGCTVTLNFN gave a protein stability index of 3.63.
With SDDFCTFQMVLEGGVECTVTLNFN the protein stability index was 2.24.
SDDFCTFQMVLEGGVACTVTLNFN showed a protein stability index of 4.12.
Variant SDDFCTFQMVLEGGVTCTVTLNFN has a protein stability index of 3.75.
SDDFCTFQMVLEGGVNCTVTLNFN gave a protein stability index of 2.89.
In the case of SDDFCTFQMVLEGGVSCTVTLNFN, the protein stability index is reported as 3.6.
In the case of SDDFCTFQMVLEGGVPCTVTLNFN, the protein stability index is reported as 2.65.
Work on SDDFCTFQMVLEGGVDCTVTLNFN yielded a protein stability index of 2.56.
Work on SDDFCTFQMVLEGGVCCRVTLNFN yielded a protein stability index of 1.48.
SDDFCTFQMVLEGGVCCWVTLNFN gave a protein stability index of 1.95.
In the case of SDDFCTFQMVLEGGVCCDVTLNFN, the protein stability index is reported as 3.76.
Work on SDDFCTFQMVLEGGVCCHVTLNFN yielded a protein stability index of 2.14.
SDDFCTFQMVLEGGVCCIVTLNFN gave a protein stability index of 3.52.
In the case of SDDFCTFQMVLEGGVCCNVTLNFN, the protein stability index is reported as 2.33.
SDDFCTFQMVLEGGVCCVVTLNFN showed a protein stability index of 3.91.
SDDFCTFQMVLEGGVCCYVTLNFN gave a protein stability index of 2.44.
With SDDFCTFQMVLEGGVCCMVTLNFN the protein stability index was 2.07.
Work on SDDFCTFQMVLEGGVCCLVTLNFN yielded a protein stability index of 2.5.
SDDFCTFQMVLEGGVCCCVTLNFN showed a protein stability index of 2.71.
SDDFCTFQMVLEGGVCCEVTLNFN showed a protein stability index of 3.76.
Variant SDDFCTFQMVLEGGVCCGVTLNFN has a protein stability index of 3.96.
For SDDFCTFQMVLEGGVCCFVTLNFN, the protein stability index was 2.37.
SDDFCTFQMVLEGGVCCAVTLNFN showed a protein stability index of 3.01.
Work on SDDFCTFQMVLEGGVCCTSTLNFN yielded a protein stability index of 2.07.
Variant SDDFCTFQMVLEGGVCCTFTLNFN has a protein stability index of 2.73.
Variant SDDFCTFQMVLEGGVCCTHTLNFN has a protein stability index of 2.41.
SDDFCTFQMVLEGGVCCTNTLNFN showed a protein stability index of 2.07.
Work on SDDFCTFQMVLEGGVCCTATLNFN yielded a protein stability index of 1.95.
In the case of SDDFCTFQMVLEGGVCCTYTLNFN, the protein stability index is reported as 2.38.
In the case of SDDFCTFQMVLEGGVCCTTTLNFN, the protein stability index is reported as 3.14.
SDDFCTFQMVLEGGVCCTKTLNFN showed a protein stability index of 1.22.
SDDFCTFQMVLEGGVCCTQTLNFN showed a protein stability index of 1.75.
Variant SDDFCTFQMVLEGGVCCTLTLNFN has a protein stability index of 3.49.
SDDFCTFQMVLEGGVCCTGTLNFN gave a protein stability index of 2.02.
SDDFCTFQMVLEGGVCCTCTLNFN showed a protein stability index of 3.15.
With SDDFCTFQMVLEGGVCCTITLNFN the protein stability index was 3.22.
SDDFCTFQMVLEGGVCCTRTLNFN gave a protein stability index of 1.9.
SDDFCTFQMVLEGGVCCTDTLNFN showed a protein stability index of 2.65.
SDDFCTFQMVLEGGVCCTWTLNFN showed a protein stability index of 2.61.
Variant SDDFCTFQMVLEGGVCCTETLNFN has a protein stability index of 2.11.
SDDFCTFQMVLEGGVCCTPTLNFN gave a protein stability index of 2.12.
Work on SDDFCTFQMVLEGLVCCTVTLNFN yielded a protein stability index of 3.96.
SDDFCTFQMVLEGWVCCTVTLNFN gave a protein stability index of 2.93.

Source: the supplement of paper PMC10567573
